System: K4 kissing-loop RNA reporter
Assay: apparent KD of K4 kissing-loop reporter; higher = weaker reporter binding
Settings: Eterna round: R107
Experimental: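 RNA-MaP round R107: designed RNA switches with theophylline, tryptophan, arginine or FMN aptamers are transcribed on-chip within common flanks. They are titrated with a labelled K4 kissing-loop RNA reporter in RNA-MaP buffer (100 mM Tris pH 7.5, 80 mM KCl, 4 mM MgCl2), without ligand or with the indicated ligand. Median apparent KD per design.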

[1] = input ligand: theophylline 20 uM
[2] = input ligand: tryptophan 2.4 mM
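Further: bound reporter read as fluorescence of individual clusters on recovered sequencing chips by microscopy, with normalized cluster intensities fitted with a binding model.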

Row | Sequence | apparent KD of K4 kissing-loop reporter (input ligand: FMN 200 uM) [nM] | apparent KD of K4 kissing-loop reporter (input ligand: arginine 13.2 mM) [nM] | apparent KD of K4 kissing-loop reporter (input ligand: none) [nM] | apparent KD of K4 kissing-loop reporter [1] [nM] | apparent KD of K4 kissing-loop reporter [2] [nM]
1 | GGUCGGAGUGAUGUUCCGAGCUUCAGUCAUCGAGGACCGGUACGGCCGCCACUCGUCUACUAUGACGUAUCACCCUCCACGUGUU [theeternabot_sameState_KL_Trp_A_33] | 150 | 142 | 146 | 145 | 125
2 | GUAUCGCUAGGAGGAUAUUUCAAUUCGCCUAUAAAAGGUGAUACGGAGUGAUGUUCCGAUUUACGGAAAGAAGGCCUAGUGAUAC [FMN B 9] | 137 | 259 | 282 | 262 | 273
3 | UCUGCAAAGUCGGCCGCCACUCCGGGCCCUAUAAAUGGGCGCAGUGAUGUUGCGGCUAGGCCUCUGAGGACCGGGACUUCGUAGA [Somale] | 62.8 | 52.1 | 54.7 | 166 | 107
4 | UGACUGGACUGAAGGAGCGGGAAACUCCUAGUGAUGUUAGGAAUACGAGACAAAGUCUCGACCCAGGUAGGUCGCAGUCUAGUCU [ArgBS 17 #SwitchBubble #StaticStem] | 121 | 93.3 | 108 | 116 | 119
5 | AUAGACUUGCAGUGAUGUUGCAAGUGAGACUAGGAUAUCAGGAAGCUGAGAAGGAGUCAUCUCCUUCAGACAUCACUAUGAAGGA [whbob_SS_FMNA__2th180] | 270 | 180 | 251 | 204 | 221
6 | CUUGGUGGCUACAUCAGGAAUUGCGGCGGAAAGGAUAUUCAUUGGCGAAGAAGGUUCCAAGUGACGAGUGAUGUUCUUCGUAAGG [theeternabot_sameState_KL_FMN_A_13] | 422 | 434 | 802 | 579 | 779
7 | GGUGACAACCAGGAGUGAUGUAUAGAAUAGCGAGGACCGGUACGGCCGCCACUCGUGAAGAGAAAGGAGUGAUGUUCCGUAAUGG [Kazoo C3] | 129 | 126 | 165 | 74.2 | 62.8
8 | CGCUCGAAAAUUAAGUGAGUGAUGUUCACUCGAGGACCGGUACGGCCGCCACUCGUCUUACGUUGAGACACUGCUCGUACUCAUA [theeternabot_exclusion_KL_Trp_A_38] | 683 | 674 | 900 | 722 | 498
9 | UAUCAGAUUACUGAUACCAGUCUAAAGACAGUGAUGUUGUCUGAUCGACCACGAUCAAAGGACCCUUGGCAGCAGUGUACUAUUC [#29 K4 Theophylline B Same State] | 197 | 203 | 192 | 188 | 199
10 | UUAUUAAUAACAGAUACCAGUCCAGAAUGAAUACUAUAGUGAUGUUAUAAUAAAGGGAAGGACCCUUGGCAGCUGUAAUAUAUUU [AstrosSSTheB#1] | 431 | 381 | 501 | 338 | 368
11 | CGCGCGCGCUUGAGAGGGCGCGCGCGAAGUGAGGAUAUUUAGGGAGAAAGAAGGCACUAUAAAAUAUAGUGAUGUUAUAUAAGGG [SSFMNA.E] | 1180 | 240 | 468 | 2790 | 441
12 | GUCUCCGUCGAUGAUACCAGUCGAUGUACGUCAGGUACCCUUUGAGUGAUGUUCAGAUUAGACCCUUGGCAGCAUAUCGAGGCUC [theeternabot_exclusion_KL_Theo_B_24] | 370 | 452 | 514 | 444 | 303
13 | AGUAUUGAGUCGGCCGCCACUGGUUUAAUGAGUGUCAAUUCUGGAUCAAAGUGAUGUUUUGGAGCUAGGACCGGGACCAUUGUUA [#07 K4 Tryptophan B Exclusion] | 446 | 360 | 433 | 360 | 479
14 | UUGAGCCGGACGUAAGUCCGGCUCUGCGAGCGAGGACCGGUACGGCCGCCACUCGGUGCAGUGAUGUUGCAUGGCCGCAAGGCCG [#2 Exclusion - Tryptophan A Attempt #5 (HarryS)] | 324 | 233 | 235 | 394 | 278
15 | AUUCAUUUCAGAGGAUAUCGAUGGAGAGUGAUGUUCUCCCAUAGCCAGUGAUGUUGGCUAGCUAUUCGAGAAGGCUGUGGGUGGA [Same State FMN B GF 27] | 141 | 227 | 210 | 202 | 208
16 | UUAUACAACUGAAGGAGCGCCAGUGAUGUUGGCGUGACGACUGCUUCCUUCGCCGAGUCCUGGCAGGUAGGUCGCAGUUGCUGAA [Oratgere] | 82.6 | 97.2 | 113 | 99 | 94.8
17 | GGAUAGGACAGAGGAUAUGGACAGUCUACAAAGUAGGCUGAAUAAAUCCUUGAAUGGAGUGAUGUUCCAGAAGGCUGUCCUAUCG [FmnBX 22 #SwitchBubble #StaticStem #Palindromic] | 337 | 384 | 503 | 481 | 426
18 | UGAUACCAGACUGAUACCAGCCAGUGAUGUUGGCUAAUCCGAGAAGGAGUCAAAGACUCCGGCCCUUGGCAGCAGUCUGGUAUCU [TheoBX 4 #SwitchBubble #StaticStem] | 133 | 117 | 133 | 128 | 121
19 | UGGACCAAGGAGUGAUGUUCCAAAUGUGAUACCAGCCACGAAAGUGGCCCUUGGCAGCACUGCCAGGACGAAAACGUCCGGUCCU [#SwitchBubble 12 #StaticStem #K4Early] | 358 | 367 | 391 | 777 | 261
20 | CCACCAAGCACGGCCGCCACUAAAUCUGCAAGUAACCUAAAGUGAUGUUUUAUCUUGCGUCAGACUAGGACCGGGUGUCAAGUUA [theeternabot_sameState_KL_Trp_B_45] | 420 | 408 | 387 | 704 | 755
21 | CCAUCGCUAUUCGAUACCAGUCAUAAAAUCUUUGGUUAAAUAAAGGAGUGAUGUUCCAAAGACCCUUGGCAGCGAAUAGUGAUGG [Theophylline B K4 6] | 670 | 624 | 695 | 887 | 780

Row | Sequence | apparent KD of K4 kissing-loop reporter (input ligand: FMN 200 uM) [nM] | apparent KD of K4 kissing-loop reporter (input ligand: arginine 13.2 mM) [nM] | apparent KD of K4 kissing-loop reporter (input ligand: none) [nM] | apparent KD of K4 kissing-loop reporter [1] [nM] | apparent KD of K4 kissing-loop reporter [2] [nM]
22 | GAUGAUCGCGCGGCCGCCACUGGUCAGUGAUGUUGACAUUAAGGCGCCGAGUAGUAACGGCGCCACAGGACCGGGCGCGAUGUAG [First Shot] | 135 | 155 | 156 | 126 | 176
23 | GGAUAGGACAAAGGAUAUGGUAGUGAUGUUACCAAACUGGUUAAACAUGUCAGAAAACUGGCAUGACCAGAAGGUUGUCCUAUCG [FmnBX 27 A11+U75] | 86.4 | 62.8 | 66.3 | 61.1 | 66.9
24 | AAUGGAGGCUGAAGGAGCGCCGCCAGUGAUGUUGGGAGUUAGAUACCAGUGAUGUUGGGCCGGCAGGUAGGUCGCGGUUUUUAUU [Exclusion Arginine B Gf 16] | 186 | 78.4 | 136 | 153 | 126
25 | UGACUGGACUGAAGGAGCGCUGAACUCCUAGUGAUGUUAGGAAAACGAGACAAAGUCUCGAAGCAGGUAGGUCGCAGUCUAGUCU | 138 | 101 | 112 | 138 | 115
26 | AAAAUAAAGCAGUCAAUCGGAGUGAUGUUCCGAGGACCGGUACGGCCGCCACUCGAGAGUCCAAAGGACUCAUGGCGAGACUGCA [#SwitchBubble 17 #K4Early] | 97 | 94.8 | 93.2 | 92.6 | 90.1
27 | AGUCGAGAUUAUAGACUCGACAGGUCAGAAGGAGCGACGAAUUCGUCAGGUAGGUCGCUGACAUAGCAGUGAUGUUGCUAUACGG [Arg A SS t1] | 149 | 132 | 150 | 163 | 126
28 | AGGCACGAGCAAGGAUAUCGAGUAGAGUGAUGUUCUGCCUGGGUUGGCUCGCAAGAGCCUUCUCAGCGAGAAGGUGCUCGUGCCU [#2 Same State - FMN A Attempt #18 (HarryS)] | 176 | 602 | 946 | 595 | 640
29 | AAGAAGGUCAAAGACCUUCGUGCUCGUGAUACCAGUCGCGAAAGCGGCCCUUGGCAGCACGGCAGUGAUGUUGCCAAGAGCACAA [#13 K4 Theophylline A Same State] | 318 | 86.6 | 190 | 413 | 211
30 | CGGAUGUAGUGAUGUUAUAUUAGAUGUAGACGAGGACCGGUACGGCCGCCACUCGAAACGGCUGCUAGCGCGUUGCGAGGUGUGC [ExTryptoA.Ck] | 341 | 525 | 1120 | 419 | 456
31 | UUUGGUUUCUCGGCCGCCACUCGUUGGUUAUGGGCUUCAGGGAUAUAGUGAUGUUAUGUAUAGAAGAGGACCGGGAGAAGGAAGG [ExTryptoB.Dq] | 195 | 245 | 288 | 186 | 269
32 | ACCUACGAUCACAAAAGUGAUUGUAGGAUCUAGGAUAUGCUGAAGAGCAGAAGGAGAGUGAUGUUCUCAACUCACGAAAGUGAGA [whbob_Ex_FMNA__2th188] | 382 | 222 | 198 | 258 | 175
33 | GAAGUACAGGCGGCCGCCACUAGUGAUGUUAGUGAUAAAAGAUAUAGUAAAUAUCGGCAUGUAGAUAGGACCGGGCCUGAUGGAG [ggbgmullin] | 311 | 220 | 256 | 236 | 226
34 | GGAGGGAUCUCGGCCGCCACUCAUAAGAAAUGAACCUAAGAAAUAUAGUGAUGUUAUAUAAAGAAGAGGACCGGGAGAAAGGAGG [ExTryptoB.A] | 148 | 171 | 197 | 555 | 171
35 | CCCAAAAUAUGCAGUGAUGUUGCAACUGAUACCAGUAUCGAAAGAUACCCUUGGCAGCGGAAAACCGCUACGUAAUUUAAAAGGG [Ex Theophylline A K4 18] | 200 | 292 | 255 | 340 | 187
36 | AAAAUUGCGGUUUUAAGAUCUUUUUGCUUACGAGGACCGGUACGGCCGCCACUCGAGUCAAGUGAUGUUUGAUUUUCUAUUAUUA [JR_ExcTryptoA_Sub015] | 92.4 | 179 | 136 | 189 | 71.6
37 | GUCUGAUGCGUUGAUACCAGUCCUUCAGUGAUGUUGCAAGCGCGGCCUAUCAAGCAAUCCGACCCUUGGCAGCAAUAGGUCCGAA [theeternabot_exclusion_KL_Theo_B_9] | 892 | 568 | 850 | 872 | 661
38 | GGGCUAUAGUGAUGUUAUUGUCUAAACGAUACCAGUUCACCCGUGAACCCUUGGCAGCGUGGUGUAACCUAUCCUCGUUGCACUG [theeternabot_sameState_KL_Theo_A_28] | 640 | 595 | 744 | 523 | 554
39 | UCGGGCGGCUGAAGGAGCGGGCGGGCCCGAGUGAUGUUCGGGUGGGCCGUGAGGCCCGGAGCCCAGGUAGGUCGCGGUUCCGCCC [#2 Same State - Arginine B Attempt #23 (HarryS)] | 200 | 153 | 188 | 168 | 175
40 | CAGAUCACAGAGUGAUGUUCUGUGUCCGAAGGAGCGCGCUUCGGCGCAGGUAGGUCGCGGAUACAGUUGACGUACCAUCUAGACA [Arg A Ex t3c] | 446 | 383 | 583 | 485 | 507
41 | UUCAGUGAUGAUGAACACUGUUGUAUAAACUAGGAUAUGCUGAUAAGCAGAAGGAGUGAUGUUCCGUUCAUCAUCAGAAUUAAAU [KL-XFMN-A4] | 619 | 378 | 371 | 407 | 255
42 | GGGAGCAAAGCUCCCGGAUGCUAUUACCAGGAGGAUAUCUGGAAACAGAGAAGGCCUAAGCCAGUGAUGUUGGUUUCGAGCAUCC | 184 | 257 | 278 | 305 | 274
